Data on eight molecules can be found in patent publication US20150125444A1 (AstraZeneca / MedImmune, published 2015).

The target in assay [1] is T1, Human FcγRIIIa (158V) extracellular domain (human, UniProt P08637 17-208).
T1 construct: extracellular domain; Position 158 is the usual allotype numbering (mature protein), not the precursor numbering of the database entry; also called FcγRIII(158V)
Nature of the assay: SPR (ProteOn XPR36), antibody immobilised, steady state, pH 7.4. The protocol:
(§1) Experiments were performed using the ProteOn XPR36 surface plasmon resonance system (Bio Rad). Phosphate buffered saline with 0.005% Tween 20 (PBS/Tween), pH 7.4 was used as running buffer for most experiments with the exception of Human FcRn (extracellular domain) binding in which Phosphate buffered saline with 0.005% Tween 20 (PBS/Tween), pH 6.0 was used. All experiments were performed at 25° C. Antibodies were immobilized on a ProteOn™ GLC Sensor Chip (#176-5011) using EDAC (1-Ethyl-3-[3-dimethylaminopropyl]carbodiimide) and sulfo-NHS (N-hydroxysulfosuccinimide) to an R.U. (response unit) level of 4000-6000. C1q, FcγRI, FcγRIIa, FcγRIIb, FcγRIII(158V), FcγRIII(158F), and FcRn were then flowed over the IgG immobilized surface at various concentrations at a rate of 25 μl/minute for a long enough period of time to achieve steady state, or near steady state. Binding (if any could be determined) was quantified via steady state equilibrium binding analysis using the ProteOn software. Human FcγRI, FcγRIIa, FcγRIIb, FcγRIII(158V), FcγRIII(158F), and FcRn extracellular domains were generated via mammalian expression vectors in house. Human C1q was obtained from Quidel (CA).

Assay [2] addresses T2, Human FcγRIa extracellular domain (human, UniProt P12314 16-292).
T2 construct: extracellular domain
The assay is described as above. The method, then: as §1

The target in assay [3] is T3, Human FcγRIIb extracellular domain (human, UniProt P31994 43-217).
T3 construct: extracellular domain
T3 sequence (looked up): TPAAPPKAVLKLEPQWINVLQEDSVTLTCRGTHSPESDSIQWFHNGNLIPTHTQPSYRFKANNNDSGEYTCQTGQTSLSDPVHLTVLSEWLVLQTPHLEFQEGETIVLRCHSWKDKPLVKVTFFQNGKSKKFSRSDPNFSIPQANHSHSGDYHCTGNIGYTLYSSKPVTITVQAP
The description is as above. The protocol: as §1

Assay [4] addresses T4, Human C1q (human, UniProt P02745 23-245; P02746 28-253; P02747 29-245).
T4 construct: Bought complement protein; In the CDC assay C1q came with human serum
The description is as above. The method, then:
as §1

Assay [5] concerns the target T5, Human FcγRIIIa (158F) extracellular domain (human, UniProt P08637 17-208).
T5 construct: extracellular domain; also called FcγRIII(158F)
The description is as above. The method, then: as §1

Assay [6] addresses T6, Human FcγRIIa extracellular domain (human, UniProt P12318 34-217).
T6 construct: extracellular domain
T6 sequence (looked up): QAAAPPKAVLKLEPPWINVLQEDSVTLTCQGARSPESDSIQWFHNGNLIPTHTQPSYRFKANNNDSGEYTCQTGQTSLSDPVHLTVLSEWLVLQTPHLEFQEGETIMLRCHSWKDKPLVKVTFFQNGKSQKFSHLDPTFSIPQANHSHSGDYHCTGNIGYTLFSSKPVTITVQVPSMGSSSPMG
Described as above. The method, then: as §1

Assay [7] concerns the target Human FcRn (extracellular domain) (human, UniProt P55899 24-297). Nature of the assay: SPR (ProteOn XPR36), antibody immobilised, steady state, pH 6.0. The method, then:
as §1

Changes are numbered by the printed parent chain.

T2 sequence (P12314 16-292): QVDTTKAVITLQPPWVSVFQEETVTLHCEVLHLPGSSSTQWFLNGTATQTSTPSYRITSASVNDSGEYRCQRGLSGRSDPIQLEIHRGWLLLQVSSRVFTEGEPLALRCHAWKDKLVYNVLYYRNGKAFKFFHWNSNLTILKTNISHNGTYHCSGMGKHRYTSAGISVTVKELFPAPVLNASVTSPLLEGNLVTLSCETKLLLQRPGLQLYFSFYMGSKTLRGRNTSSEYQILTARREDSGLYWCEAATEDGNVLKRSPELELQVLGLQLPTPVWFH
T5 sequence (P08637 17-208): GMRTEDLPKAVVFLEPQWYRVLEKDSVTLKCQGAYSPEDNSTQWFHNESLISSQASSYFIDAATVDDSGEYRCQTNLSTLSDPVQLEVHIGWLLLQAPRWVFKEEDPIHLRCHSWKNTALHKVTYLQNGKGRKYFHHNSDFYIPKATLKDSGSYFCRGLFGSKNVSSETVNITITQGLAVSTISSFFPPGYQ
T4 sequence (P02745 23-245 limits assumed, chain 1 of 3): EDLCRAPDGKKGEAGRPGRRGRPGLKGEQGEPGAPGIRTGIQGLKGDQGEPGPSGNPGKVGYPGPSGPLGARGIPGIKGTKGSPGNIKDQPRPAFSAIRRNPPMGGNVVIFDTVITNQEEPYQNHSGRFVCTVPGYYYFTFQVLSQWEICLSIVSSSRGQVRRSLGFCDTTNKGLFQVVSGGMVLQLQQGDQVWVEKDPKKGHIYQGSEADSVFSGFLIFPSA
T4 sequence (P02746 28-253 limits assumed, chain 2 of 3): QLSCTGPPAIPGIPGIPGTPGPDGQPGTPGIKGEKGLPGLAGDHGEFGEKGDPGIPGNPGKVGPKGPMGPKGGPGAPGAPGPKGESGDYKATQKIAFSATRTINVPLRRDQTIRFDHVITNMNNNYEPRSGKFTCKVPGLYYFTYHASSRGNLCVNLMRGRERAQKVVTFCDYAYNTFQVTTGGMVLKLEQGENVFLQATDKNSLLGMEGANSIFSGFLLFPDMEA
T4 sequence (P02747 29-245 limits assumed, chain 3 of 3): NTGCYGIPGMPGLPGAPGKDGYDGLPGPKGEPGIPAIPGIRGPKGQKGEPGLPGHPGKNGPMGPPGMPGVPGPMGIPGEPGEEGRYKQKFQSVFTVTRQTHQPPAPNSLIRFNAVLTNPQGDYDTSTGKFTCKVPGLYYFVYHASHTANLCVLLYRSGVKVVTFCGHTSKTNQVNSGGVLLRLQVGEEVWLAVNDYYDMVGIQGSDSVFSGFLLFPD
T1 sequence (P08637 17-208 F176V): as the sequence (P08637 17-208) above, with F160V counted along it
Human FcRn (extracellular domain), sequence (P55899 24-297): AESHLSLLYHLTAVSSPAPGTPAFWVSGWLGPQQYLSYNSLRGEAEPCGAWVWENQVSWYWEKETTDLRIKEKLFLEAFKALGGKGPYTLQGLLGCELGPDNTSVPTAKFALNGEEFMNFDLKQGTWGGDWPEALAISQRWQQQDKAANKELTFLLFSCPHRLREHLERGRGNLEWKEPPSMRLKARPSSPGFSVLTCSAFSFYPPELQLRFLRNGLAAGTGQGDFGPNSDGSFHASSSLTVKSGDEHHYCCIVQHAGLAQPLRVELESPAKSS

B1: Ab4 (anti-C5a antibody 1B8) with FAQ-YTE variant IgG1 Fc domain (antibody)
heavy: EVQLLESGGGLVQPGGSLRLSCAASGFTFSSYVMNWVRQAPGKGLEWVSSISPSGGRTWYADSVKGRFTISRDNSKNTLYLQMNSLRAEDTAVYYCARSDGSAAGFLGYWGQGTLVTVSSASTKGPSVFPLAPSSKSTSGGTAALGCLVKDYFPEPVTVSWNSGALTSGVHTFPAVLQSSGLYSLSSVVTVPSSSLGTQTYICNVNHKPSNTKVDKRVEPKSCDKTHTCPPCPAPEFAGGPSVFLFPPKPKDTLYITREPEVTCVVVDVSHEDPEVKFNWYVDGVEVHNAKTKPREEQYNSTYRVVSVLTVLHQDWLNGKEYKCQVSNKALPAPIEKTISKAKGQPREPQVYTLPPSREEMTKNQVSLTCLVKGFYPSDIAVEWESNGQPENNYKTTPPVLDSDGSFFLYSKLTVDKSRWQQGNVFSCSVMHEALHNHYTQKSLSLSPGK
light: QSALTQPPSASGTPGQRVTISCSGTNSNIGSNYVFWYQQLPGTAPKLLIFESNRRPSGVPDRFSGSKSDTSASLAISGLRSEDEADYYCATWDDTLIAPVFGSGTKVTVLGQPKANPTVTLFPPSSEELQANKATLVCLISDFYPGAVTVAWKADSSPVKAGVETTTPSKQSNNKYAASSYLSLTPEQWKSHRSYSCQVTHEGSTVEKTVAPAEC
notes: Full IgG1; also called Ab4 FAQ-YTE
For the molecule B1, the binding result in assay [1], in assay [2], in assay [3], in assay [4], in assay [5] and in assay [6] was “no binding” in each case.

B2: Ab4 (anti-C5a antibody 1B8) with FE-YTE variant IgG1 Fc domain (antibody)
heavy: B1 heavy with A238E, Q325K
light: B1 light
notes: Full IgG1; also called Ab4 FE-YTE
Take B2: in assay [4], the binding result is reported as “binds”.

B3: Ab4 (anti-C5a antibody 1B8) with FES-YTE variant IgG1 Fc domain (antibody)
heavy: B1 heavy with A238E, Q325K, P334S
light: B1 light
notes: Full IgG1; also called Ab4 FES-YTE
In assay [7], B3 came in with a Kd of 270 nM.

B4: Ab3 (anti-CD20 antibody HB20.3) with wild-type IgG1 Fc domain (antibody)
heavy: not shown
light: DIQMTQSPASLSASVGETVTITCRASGNIHNYLAWYQQKQGKSPQLLVYNAKTLADGVPSRFSGSGSGTQFSLKINSLQPEDFGSYYCQHFWSTPWTFGGGTKLEIKRTVAAPSVFIFPPSDEQLKSGTASVVCLLNNFYPREAKVQWKVDNALQSGNSQESVTEQDSKDSTYSLSSTLTLSKADYEKHKVYACEVTHQGLSSPVTKSFNRGEC
notes: Full human IgG1 kappa antibody; also called Ab3 WT; WT
For B4, the Kd amounted to 670 nM in assay [7]; 900 nM in assay [1]; 78 nM in assay [2]; 6000 nM in assay [3]; 103 nM in assay [4]; 4700 nM in assay [5]. Moreover, the Kd in assay [6] amounted to 1200 nM.

B5: Ab3 (anti-CD20 antibody HB20.3) with FAQ-YTE variant IgG1 Fc domain (antibody)
heavy: QVQLQQPGAELVKPGASVKMSCKASGFTFTNYNMHWLKQTPGQGLEWIGAIYPENGDTSYNQKFKGKATLTADKASSTAYMHLSSLTSEDSAVYFCARFYYYGSYYGAMDYWGQGTSVTVSSASTKGPSVFPLAPSSKSTSGGTAALGCLVKDYFPEPVTVSWNSGALTSGVHTFPAVLQSSGLYSLSSVVTVPSSSLGTQTYICNVNHKPSNTKVDKRVEPKSCDKTHTCPPCPAPEFAGGPSVFLFPPKPKDTLYITREPEVTCVVVDVSHEDPEVKFNWYVDGVEVHNAKTKPREEQYNSTYRVVSVLTVLHQDWLNGKEYKCQVSNKALPAPIEKTISKAKGQPREPQVYTLPPSREEMTKNQVSLTCLVKGFYPSDIAVEWESNGQPENNYKTTPPVLDSDGSFFLYSKLTVDKSRWQQGNVFSCSVMHEALHNHYTQKSLSLSPGK
light: B4 light
notes: Full IgG1; also called Ab3 FAQ-YTE; YTE-FAQ
For B5, the binding result in assay [1], in assay [2], in assay [3], in assay [4], in assay [5] and in assay [6] was “no binding” each time.

B6: Ab3 (anti-CD20 antibody HB20.3) with FQQ-YTE variant IgG1 Fc domain (antibody)
heavy: B5 heavy with A240Q
light: B4 light
notes: Full IgG1; also called Ab3 FQQ-YTE; YTE-FQQ
Turning to B6, the binding result in assay [1], in assay [2], in assay [3], in assay [4], in assay [5] and in assay [6] was “no binding” throughout.

B7: Ab3 (anti-CD20 antibody HB20.3) with FE-YTE variant IgG1 Fc domain (antibody)
heavy: B5 heavy with A240E, Q327K
light: B4 light
notes: Full IgG1; also called Ab3 FE-YTE; YTE-FE
Molecule B7 registered a Kd in assay [4] of 360 nM.

B8: Ab3 (anti-CD20 antibody HB20.3) with FQG-YTE variant IgG1 Fc domain (antibody)
heavy: B5 heavy with A240Q, Q327K, P336G
light: B4 light
notes: Full IgG1; also called Ab3 FQG-YTE; YTE-FQG
As for B8, the binding result in assay [1], in assay [2], in assay [3], in assay [4], in assay [5] and in assay [6] was “no binding” in each case.

The term Kd denotes the free concentration of one partner at which half of the binding sites on the other are occupied at equilibrium, for simple one-to-one binding.
